Measured values taken from article PMC8000974, “Tumor Activated Cell Penetrating Peptides to Selectively Deliver Immune Modulatory Drugs” (Pharmaceutics, 2021).

Legend:
[1] = test system: B16F10 melanoma cells; test: Cell culture Cy5 imaging of peptide uptake; assay type: cell-based; conditions: murine B16 cells, 1 μM peptide in 1% FBS, 2 h at room temperature then 2 h in media, fixed
Procedure: (§1) Murine B16F10 melanoma and LL2 Lewis lung carcinoma cell lines were purchased from ATCC. MC38 colon adenocarcinoma cell line was purchased from Kerafast (Boston, MA, USA). Cell lines were grown in Dulbecco’s modified eagle’s medium (DMEM) + 10% fetal bovine serum (FBS) media. All cell lines were maintained at low passage and routinely tested for mycoplasma. For Cy5 imaging, cells were resuspended and incubated with Cy5 labeled r9 or ACPP at 1 μM in 1% FBS. The cells were incubated for 2 h under rotation and covered to be protected from light at room temperature. Cells were then spun down (5 min at 2000 rpm) and resuspended in cell media for an additional 2 h. The cells were then fixed with 4% paraformaldehyde in phosphate buffered saline (PBS), washed twice with PBS and incubated with 4′,6-diamidino-2-phenylindole (DAPI) stain (1:500). Finally, the cells were washed with PBS and mounted on slides using Fluoromount mounting media (Sigma, St Louis, MI, USA). Cells were imaged using a Keyence microscope with a 100× oil objective and high-resolution settings.

[2] = test system: MC38 colon adenocarcinoma cells; test: Cell culture Cy5 imaging of peptide uptake; assay type: cell-based; conditions: murine MC38 cells, 1 μM peptide in 1% FBS, 2 h at room temperature then 2 h in media, fixed
Procedure: as §1

[3] = test system: LL2 Lewis lung carcinoma cells; test: Cell culture Cy5 imaging of peptide uptake; assay type: cell-based; conditions: murine LL2 cells, 1 μM peptide in 1% FBS, 2 h at room temperature then 2 h in media, fixed
Procedure: as §1

[4] = test system: B16F10 melanoma tumors; test: In vivo murine therapy experiments; design: species or system mice; conditions: for Tumor control (tumor volume) vs control untreated: day 5 and day 9, 10 tumors per group
Procedure: Female six-week-old C57Bl6 albino mice were injected with 50,000 B16F10 melanoma cells subcutaneously in both thighs using a 1:1 mixture of PBS:Matrigel. The tumors were palpable five days after implant at which point treatment was initiated. Due to the rapid growth of B16F10 tumor in mice, dosing began when tumors reached an average size of 30 ± 13 mm^3. Animals were divided into four treatment groups: control, intratumoral (i.t.) resiquimod (30 nmoles per tumor), i.t. ACPP-resiquimod (30 nmoles per tumor), or i.v. ACPP-resiquimod (60 nmoles per mouse). Mice were given free drug or ACPP conjugated on day 5 and day 9. Each treatment group had five mice with 10 tumors. Tumor volumes were measured bi-weekly and mice weighed weekly. Mice were sacrificed when the tumor size reached 1500 mm^3.

[5] = test system: B16F10 melanoma tumors; test: Tissue drug concentration (LC-MS/MS) after i.v. ACPP-resiquimod; assay type: in vivo; conditions: B16F10 tumor bearing C57Bl6 albino mice, 30 nmoles ACPP-resiquimod i.v., 6 h post injection, free resiquimod by LC-MS/MS
Procedure: Female six-week-old C57Bl6 albino mice were injected with 50,000 B16F10 melanoma cells subcutaneously into both thighs using a 1:1 PBS:Matrigel. Mice were i.v. injected with 30 nmoles of ACPP-resiquimod in 100 µL sterile water and 6 h post injection mice were sacrificed. Tumor and adjacent muscle tissue were excised, weighed, and flash frozen in liquid N2. A mixture of 44 mL H2O, 44 mL acetonitrile, and 2 mL glacial acetic acid was used as the diluent. Nine times w/v of diluent was added to the frozen tissue. Tissues were dissociated on ice with a Sonic dismemberator Model 500 (Fisher Scientific) tissue probe homogenizer using 5 s pulse of 20% amplitude four to five times. The samples were spun down to obtain clear supernatant. For muscle tissue, addition passage through a 0.22 µm Nylon filter (Costar Spin X; purchased from Sigma, St Louis, MI, USA) was used to obtain clear supernatant. A fixed volume of tissue supernatant from each sample was injected on the LC-MS/MS (Agilent 1100 LC with MSD Trap XCT, Santa Clara, CA, USA). Each sample was run in duplicate on the LC-MS/MS to determine reproducibility of integrated ion current for each sample. […] Concentration of unknown samples were then calculated (Graphpad PRISM).

Row | Compound | Cell uptake (Cy5 fluorescence microscopy) [1] | Cell uptake (Cy5 fluorescence microscopy) [2] | Cell uptake (Cy5 fluorescence microscopy) [3] | Tumor control (tumor volume) vs control untreated ([4]; i.t. 30 nmoles per tumor) | Mouse survival, dose response ([4]; i.t. injection, 30 nmoles compared to 10 nmoles, Log-rank (Mantel–Cox) test) | Resiquimod drug concentration in tumor tissue [5] | Resiquimod drug concentration in peri-tumoral muscle tissue ([5]; negative value from calibration background noise) | Antitumor efficacy compared with free resiquimod ([4]; ACPP-resiquimod i.t. or i.v. vs i.t. free resiquimod, total drug per animal constant) | Tumor control (tumor volume) vs control untreated ([4]; i.v. 60 nmoles per mouse)
1 | CCN1C(=CC=CC=CC2=[N+](CCCCCC(=O)NCCN3C(=O)CC(SC[C@@H](NC(=O)[C@@H](CCCNC(=N)N)NC(=O)[C@@H](CCCNC(=N)N)NC(=O)[C@@H](CCCNC(=N)N)NC(=O)[C@@H](CCCNC(=N)N)NC(=O)[C@@H](CCCNC(=N)N)NC(=O)[C@@H](CCCNC(=N)N)NC(=O)[C@@H](CCCNC(=N)N)NC(=O)[C@@H](CCCNC(=N)N)NC(=O)[C@H](N)CCCNC(=N)N)C(N)=O)C3=O)c3ccc(S(=O)(=O)[O-])cc3C2(C)C)C(C)(C)c2cc(S(=O)(=O)O)ccc21 (stereo partly shown) [Cy5 labeled r9] | readily taken up | readily taken up | readily taken up |  |  |  |  |  | 
2 | CCOCc1nc2c(N)nc3ccccc3c2n1CC(C)(C)O [resiquimod, Resiquimod, reference compound] |  |  |  | improved tumor control | statistically improved survival |  |  |  | 
3 | cyclo(RGD)fc-MC-HN-peg8-e9-oPLGC(Me)AG-r9-c-(MC-VC-PABC-resiquimod-CONH2 [ACPP-resiquimod] |  |  |  | improved tumor control |  | 1142.3 ± 111.7 nM | -5.8 ± 3.5 nM | as efficacious as free resiquimod | improved tumor control
